Paper PMC2362229

Tested on: COc1cccc2c1C(=O)c1c(O)c3c(c(O)c1C2=O)C[C@@](O)(C(C)=O)C[C@@H]3O[C@H]1C[C@H](N)[C@H](O)[C@H](C)O1
Test: cells, lysate or membranes named
Conditions: other: Lineweaver-Burk plots; rat canalicular vesicles; pH 7.4

Sequence of Mdr1b P-gp (Rattus norvegicus) (chain, as listed by the source): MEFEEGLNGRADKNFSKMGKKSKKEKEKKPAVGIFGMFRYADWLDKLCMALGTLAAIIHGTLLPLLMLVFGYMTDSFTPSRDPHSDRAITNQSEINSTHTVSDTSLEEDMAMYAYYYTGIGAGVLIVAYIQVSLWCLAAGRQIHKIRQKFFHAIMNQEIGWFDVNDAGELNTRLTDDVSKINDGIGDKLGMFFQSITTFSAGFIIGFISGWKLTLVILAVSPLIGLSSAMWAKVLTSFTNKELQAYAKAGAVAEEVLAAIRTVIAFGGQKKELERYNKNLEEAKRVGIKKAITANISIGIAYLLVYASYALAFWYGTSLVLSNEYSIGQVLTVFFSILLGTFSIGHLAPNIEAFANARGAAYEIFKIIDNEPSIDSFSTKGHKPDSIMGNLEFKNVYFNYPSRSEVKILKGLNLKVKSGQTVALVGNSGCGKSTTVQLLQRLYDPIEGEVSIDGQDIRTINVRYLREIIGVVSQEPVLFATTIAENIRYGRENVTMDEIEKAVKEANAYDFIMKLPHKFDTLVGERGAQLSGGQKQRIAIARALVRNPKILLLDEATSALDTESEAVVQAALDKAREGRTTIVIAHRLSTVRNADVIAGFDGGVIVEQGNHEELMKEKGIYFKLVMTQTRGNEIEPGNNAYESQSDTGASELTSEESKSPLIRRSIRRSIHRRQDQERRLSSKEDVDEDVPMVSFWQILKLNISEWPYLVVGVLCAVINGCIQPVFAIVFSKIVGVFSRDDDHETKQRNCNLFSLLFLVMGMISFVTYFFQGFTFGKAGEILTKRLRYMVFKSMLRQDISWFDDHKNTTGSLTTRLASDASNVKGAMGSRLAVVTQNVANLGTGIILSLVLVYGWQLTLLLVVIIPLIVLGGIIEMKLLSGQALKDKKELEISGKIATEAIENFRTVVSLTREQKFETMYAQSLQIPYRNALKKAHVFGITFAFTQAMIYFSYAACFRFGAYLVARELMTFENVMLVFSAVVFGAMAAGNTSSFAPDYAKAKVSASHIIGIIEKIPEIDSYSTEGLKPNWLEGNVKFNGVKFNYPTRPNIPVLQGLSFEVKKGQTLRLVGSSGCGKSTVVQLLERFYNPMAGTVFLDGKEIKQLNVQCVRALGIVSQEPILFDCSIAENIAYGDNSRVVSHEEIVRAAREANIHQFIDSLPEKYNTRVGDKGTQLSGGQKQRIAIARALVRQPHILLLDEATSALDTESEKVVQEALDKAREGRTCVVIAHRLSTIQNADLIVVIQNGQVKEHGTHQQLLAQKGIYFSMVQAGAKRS

Question: How did the Km turn out when Mdr1b P-gp (Rattus norvegicus) was run?
Answer: Its Km is 33 µM.
